Experiments:
Experiment in all cases: holdup assay
Design in all cases: key: below the threshold = too weak to quantify, mostly under pKd 3.1 to 4
Conditions in all cases: plain residues with an end cap or a label only (N-terminal biotin on a linker: ado-ado)
MAGI1_2, Q96QZ7 = biological target: MAGI1_2, Q96QZ7
DFNB31_3, Q9P202 = biological target: T1, DFNB31_3, Q9P202
T1 sequence (Q9P202 811-907, limits assumed, looked up): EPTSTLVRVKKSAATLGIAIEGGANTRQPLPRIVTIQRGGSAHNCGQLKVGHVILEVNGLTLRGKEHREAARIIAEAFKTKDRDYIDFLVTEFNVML

SHANK1, Q9Y566 = biological target: T2, SHANK1, Q9Y566
T2 sequence (Q9Y566 658-767, limits assumed, looked up): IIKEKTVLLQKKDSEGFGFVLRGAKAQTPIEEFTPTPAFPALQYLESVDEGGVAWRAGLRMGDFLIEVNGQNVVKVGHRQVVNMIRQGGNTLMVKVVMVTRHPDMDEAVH

APBA3_1, O96018 = biological target: T3, APBA3_1, O96018
T3 sequence (O96018 389-490, limits assumed, looked up): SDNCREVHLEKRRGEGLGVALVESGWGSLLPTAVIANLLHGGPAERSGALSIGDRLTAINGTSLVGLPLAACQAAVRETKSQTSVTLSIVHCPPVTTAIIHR

DFNB31_1, Q9P202 = biological target: T4, DFNB31_1, Q9P202
T4 sequence (Q9P202 135-233, limits assumed, looked up): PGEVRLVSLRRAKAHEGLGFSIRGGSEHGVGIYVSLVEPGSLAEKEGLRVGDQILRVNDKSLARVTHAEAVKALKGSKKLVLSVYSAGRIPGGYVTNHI

GRIP1_3, Q9Y3R0 = biological target: T5, GRIP1_3, Q9Y3R0
T5 sequence (Q9Y3R0 247-346, limits assumed, looked up): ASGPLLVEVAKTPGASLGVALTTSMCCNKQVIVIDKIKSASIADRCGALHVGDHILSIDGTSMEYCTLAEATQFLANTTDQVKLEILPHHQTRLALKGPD

Inadl_8, Q8NI35 = biological target: Inadl_8, Q8NI35
Chain of Inadl_8, Q8NI35 (Q8NI35 1425-1530): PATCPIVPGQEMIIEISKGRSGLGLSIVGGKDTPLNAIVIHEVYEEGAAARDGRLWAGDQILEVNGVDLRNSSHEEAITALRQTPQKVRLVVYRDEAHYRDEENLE

DLG4_3, P78352 = biological target: DLG4_3, P78352
Chain of DLG4_3, P78352 (P78352 306-403): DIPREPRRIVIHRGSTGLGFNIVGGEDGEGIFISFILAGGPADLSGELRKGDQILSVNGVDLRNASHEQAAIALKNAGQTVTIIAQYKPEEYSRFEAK

MPP6, Q9NZW5 = biological target: T6, MPP6, Q9NZW5
T6 sequence (Q9NZW5 125-219, limits assumed, looked up): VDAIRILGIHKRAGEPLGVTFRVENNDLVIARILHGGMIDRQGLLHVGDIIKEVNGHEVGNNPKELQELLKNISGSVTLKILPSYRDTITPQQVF

PDZD7_3, Q9H5P4 = biological target: T7, PDZD7_3, Q9H5P4
T7 sequence (Q9H5P4 857-944, limits assumed, looked up): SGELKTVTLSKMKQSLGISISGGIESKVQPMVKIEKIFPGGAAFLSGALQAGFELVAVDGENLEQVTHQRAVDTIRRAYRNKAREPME

DLG5_1, Q8TDM6 = biological target: DLG5_1, Q8TDM6
Chain of DLG5_1, Q8TDM6 (Q8TDM6 617-713): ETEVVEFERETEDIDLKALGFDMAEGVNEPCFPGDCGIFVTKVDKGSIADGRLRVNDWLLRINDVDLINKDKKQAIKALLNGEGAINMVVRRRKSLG

GRID2IP_2, A4D2P6 = biological target: GRID2IP_2, A4D2P6
Chain of GRID2IP_2, A4D2P6 (A4D2P6 272-370): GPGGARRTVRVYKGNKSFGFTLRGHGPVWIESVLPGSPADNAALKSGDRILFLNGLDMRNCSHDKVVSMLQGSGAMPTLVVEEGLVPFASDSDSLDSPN

SYNJ2BP, P57105 = biological target: T8, SYNJ2BP, P57105
T8 sequence (P57105 8-110, limits assumed, looked up): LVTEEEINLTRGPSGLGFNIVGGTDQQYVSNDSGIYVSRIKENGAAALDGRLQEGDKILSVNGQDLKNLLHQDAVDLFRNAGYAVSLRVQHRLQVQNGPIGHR

AHNAK1, Q09666 = biological target: AHNAK1, Q09666
Chain of AHNAK1, Q09666 (Q09666 4-100): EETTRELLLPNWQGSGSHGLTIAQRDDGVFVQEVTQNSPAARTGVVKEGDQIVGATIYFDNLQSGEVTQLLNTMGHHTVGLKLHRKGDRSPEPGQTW

PTPN13_1, Q12923 = biological target: T9, PTPN13_1, Q12923
T9 sequence (Q12923 1088-1188, limits assumed, looked up): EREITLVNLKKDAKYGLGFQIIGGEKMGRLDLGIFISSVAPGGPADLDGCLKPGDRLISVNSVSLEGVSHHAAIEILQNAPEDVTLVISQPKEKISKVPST

MPDZ_12, O75970 = biological target: T10, MPDZ_12, O75970
T10 sequence (O75970 1857-1958, limits assumed, looked up): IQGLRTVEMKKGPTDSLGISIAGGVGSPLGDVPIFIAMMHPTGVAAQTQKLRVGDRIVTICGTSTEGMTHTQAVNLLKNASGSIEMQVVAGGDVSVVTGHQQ

GRIP1_7, Q9Y3R0 = biological target: T11, GRIP1_7, Q9Y3R0
T11 sequence (Q9Y3R0 999-1096, limits assumed, looked up): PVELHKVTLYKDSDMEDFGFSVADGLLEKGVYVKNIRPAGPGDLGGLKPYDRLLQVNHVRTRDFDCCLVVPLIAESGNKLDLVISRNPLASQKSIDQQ

FRMPD2_3, Q68DX3 = biological target: FRMPD2_3, Q68DX3
Chain of FRMPD2_3, Q68DX3 (Q68DX3 1073-1166): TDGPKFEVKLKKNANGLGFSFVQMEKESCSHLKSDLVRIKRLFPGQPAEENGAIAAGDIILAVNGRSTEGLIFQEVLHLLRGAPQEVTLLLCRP

PDZRN4_1, Q6ZMN7 = biological target: PDZRN4_1, Q6ZMN7
Chain of PDZRN4_1, Q6ZMN7 (Q6ZMN7 213-318): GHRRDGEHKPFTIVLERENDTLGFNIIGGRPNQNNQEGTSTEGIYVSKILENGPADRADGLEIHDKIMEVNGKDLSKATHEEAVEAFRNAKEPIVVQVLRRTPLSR

APBA1_2, Q02410 = biological target: T12, APBA1_2, Q02410
T12 sequence (Q02410 742-832, limits assumed, looked up): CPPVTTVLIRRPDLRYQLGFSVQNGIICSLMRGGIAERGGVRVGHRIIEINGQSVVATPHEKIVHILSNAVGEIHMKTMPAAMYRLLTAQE

GRID2IP_1, A4D2P6 = biological target: GRID2IP_1, A4D2P6
Chain of GRID2IP_1, A4D2P6 (A4D2P6 1-87): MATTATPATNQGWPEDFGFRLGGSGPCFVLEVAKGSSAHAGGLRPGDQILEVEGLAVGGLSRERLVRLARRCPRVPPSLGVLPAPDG

MAGI1_1, Q96QZ7 = biological target: MAGI1_1, Q96QZ7
Chain of MAGI1_1, Q96QZ7 (Q96QZ7 1-106): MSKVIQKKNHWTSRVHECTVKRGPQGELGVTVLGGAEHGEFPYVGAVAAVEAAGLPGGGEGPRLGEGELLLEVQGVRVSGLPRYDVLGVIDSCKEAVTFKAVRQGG

DLG1_1, Q12959 = biological target: DLG1_1, Q12959
NHERF2_2, Q15599 = biological target: NHERF2_2, Q15599
Chain of NHERF2_2, Q15599 (Q15599 142-238): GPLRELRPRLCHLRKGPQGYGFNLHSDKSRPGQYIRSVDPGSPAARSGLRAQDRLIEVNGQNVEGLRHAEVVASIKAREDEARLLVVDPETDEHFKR

DLG4_2, P78352 = biological target: DLG4_2, P78352
Chain of DLG4_2, P78352 (P78352 155-259): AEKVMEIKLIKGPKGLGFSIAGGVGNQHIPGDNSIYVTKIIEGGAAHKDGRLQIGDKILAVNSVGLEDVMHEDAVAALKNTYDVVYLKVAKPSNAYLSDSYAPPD

TJP1_3, Q07157 = biological target: TJP1_3, Q07157
Chain of TJP1_3, Q07157 (Q07157 416-512): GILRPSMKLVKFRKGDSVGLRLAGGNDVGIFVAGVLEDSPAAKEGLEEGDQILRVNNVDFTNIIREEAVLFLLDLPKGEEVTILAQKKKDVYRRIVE

Chain of MAGI1_2, Q96QZ7 (Q96QZ7 456-580): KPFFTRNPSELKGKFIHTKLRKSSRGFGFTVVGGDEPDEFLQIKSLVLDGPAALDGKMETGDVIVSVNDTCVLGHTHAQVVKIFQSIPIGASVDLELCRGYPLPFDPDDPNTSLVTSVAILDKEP

Binder: QRYPGNQTTC [CCL24, O00175]
- pKd (MAGI1_2, Q96QZ7): below the threshold
- pKd (DFNB31_3, Q9P202): below the threshold
- pKd (SHANK1, Q9Y566): below the threshold
- pKd (APBA3_1, O96018): below the threshold
- pKd (DFNB31_1, Q9P202): below the threshold
- pKd (GRIP1_3, Q9Y3R0): below the threshold
- pKd (Inadl_8, Q8NI35): below the threshold
- pKd (DLG4_3, P78352): below the threshold
- pKd (MPP6, Q9NZW5): below the threshold
- pKd (PDZD7_3, Q9H5P4): below the threshold
- pKd (DLG5_1, Q8TDM6): below the threshold
- pKd (GRID2IP_2, A4D2P6): 4.08
- pKd (SYNJ2BP, P57105): below the threshold
- pKd (AHNAK1, Q09666): below the threshold
- pKd (PTPN13_1, Q12923): below the threshold
- pKd (MPDZ_12, O75970): below the threshold
- pKd (GRIP1_7, Q9Y3R0): below the threshold
- pKd (FRMPD2_3, Q68DX3): below the threshold
- pKd (PDZRN4_1, Q6ZMN7): below the threshold
- pKd (APBA1_2, Q02410): below the threshold
- pKd (GRID2IP_1, A4D2P6): below the threshold
- pKd (MAGI1_1, Q96QZ7): below the threshold
- pKd (DLG1_1, Q12959): 3.71
- pKd (NHERF2_2, Q15599): below the threshold
- pKd (DLG4_2, P78352): 3.64
- pKd (TJP1_3, Q07157): below the threshold

Binder: PKSNSSKEYV [CLDN7, O95471]
- pKd (MAGI1_2, Q96QZ7): below the threshold
- pKd (DFNB31_3, Q9P202): below the threshold
- pKd (SHANK1, Q9Y566): below the threshold
- pKd (APBA3_1, O96018): below the threshold
- pKd (DFNB31_1, Q9P202): below the threshold
- pKd (GRIP1_3, Q9Y3R0): below the threshold
- pKd (Inadl_8, Q8NI35): below the threshold
- pKd (DLG4_3, P78352): below the threshold
- pKd (MPP6, Q9NZW5): below the threshold
- pKd (PDZD7_3, Q9H5P4): below the threshold
- pKd (DLG5_1, Q8TDM6): below the threshold
- pKd (GRID2IP_2, A4D2P6): below the threshold
- pKd (SYNJ2BP, P57105): below the threshold
- pKd (AHNAK1, Q09666): below the threshold
- pKd (PTPN13_1, Q12923): below the threshold
- pKd (MPDZ_12, O75970): below the threshold
- pKd (GRIP1_7, Q9Y3R0): below the threshold
- pKd (FRMPD2_3, Q68DX3): below the threshold
- pKd (PDZRN4_1, Q6ZMN7): below the threshold
- pKd (APBA1_2, Q02410): 3.69
- pKd (GRID2IP_1, A4D2P6): below the threshold
- pKd (MAGI1_1, Q96QZ7): below the threshold
- pKd (DLG1_1, Q12959): below the threshold
- pKd (NHERF2_2, Q15599): below the threshold
- pKd (DLG4_2, P78352): below the threshold
- pKd (TJP1_3, Q07157): below the threshold

Binder: SQPLLVHDDV [KIT, P10721]
- pKd (MAGI1_2, Q96QZ7): below the threshold
- pKd (DFNB31_3, Q9P202): below the threshold
- pKd (SHANK1, Q9Y566): below the threshold
- pKd (APBA3_1, O96018): below the threshold
- pKd (DFNB31_1, Q9P202): below the threshold
- pKd (GRIP1_3, Q9Y3R0): below the threshold
- pKd (Inadl_8, Q8NI35): 4.94
- pKd (DLG4_3, P78352): below the threshold
- pKd (MPP6, Q9NZW5): below the threshold
- pKd (PDZD7_3, Q9H5P4): below the threshold
- pKd (DLG5_1, Q8TDM6): below the threshold
- pKd (GRID2IP_2, A4D2P6): below the threshold
- pKd (SYNJ2BP, P57105): below the threshold
- pKd (AHNAK1, Q09666): below the threshold
- pKd (PTPN13_1, Q12923): below the threshold
- pKd (MPDZ_12, O75970): below the threshold
- pKd (GRIP1_7, Q9Y3R0): below the threshold
- pKd (FRMPD2_3, Q68DX3): below the threshold
- pKd (PDZRN4_1, Q6ZMN7): below the threshold
- pKd (APBA1_2, Q02410): 3.54
- pKd (GRID2IP_1, A4D2P6): below the threshold
- pKd (MAGI1_1, Q96QZ7): below the threshold
- pKd (DLG1_1, Q12959): below the threshold
- pKd (NHERF2_2, Q15599): below the threshold
- pKd (DLG4_2, P78352): below the threshold
- pKd (TJP1_3, Q07157): below the threshold

Binder: KLQNPNQSVV [TYRP1, P17643]
- pKd (MAGI1_2, Q96QZ7): below the threshold
- pKd (DFNB31_3, Q9P202): below the threshold
- pKd (SHANK1, Q9Y566): below the threshold
- pKd (APBA3_1, O96018): below the threshold
- pKd (DFNB31_1, Q9P202): 3.61
- pKd (GRIP1_3, Q9Y3R0): below the threshold
- pKd (Inadl_8, Q8NI35): 3.97
- pKd (DLG4_3, P78352): below the threshold
- pKd (MPP6, Q9NZW5): below the threshold
- pKd (PDZD7_3, Q9H5P4): 4.22
- pKd (DLG5_1, Q8TDM6): below the threshold
- pKd (GRID2IP_2, A4D2P6): 3.63
- pKd (SYNJ2BP, P57105): 3.91
- pKd (AHNAK1, Q09666): below the threshold
- pKd (PTPN13_1, Q12923): below the threshold
- pKd (MPDZ_12, O75970): below the threshold
- pKd (GRIP1_7, Q9Y3R0): below the threshold
- pKd (FRMPD2_3, Q68DX3): below the threshold
- pKd (PDZRN4_1, Q6ZMN7): below the threshold
- pKd (APBA1_2, Q02410): 3.56
- pKd (GRID2IP_1, A4D2P6): below the threshold
- pKd (MAGI1_1, Q96QZ7): below the threshold
- pKd (DLG1_1, Q12959): 3.83
- pKd (NHERF2_2, Q15599): below the threshold
- pKd (DLG4_2, P78352): 4.11
- pKd (TJP1_3, Q07157): below the threshold

Binder: EFKQTSSFLV [JAM1, Q9Y624]
- pKd (MAGI1_2, Q96QZ7): below the threshold
- pKd (DFNB31_3, Q9P202): 3.93
- pKd (SHANK1, Q9Y566): below the threshold
- pKd (APBA3_1, O96018): below the threshold
- pKd (DFNB31_1, Q9P202): below the threshold
- pKd (GRIP1_3, Q9Y3R0): below the threshold
- pKd (Inadl_8, Q8NI35): below the threshold
- pKd (DLG4_3, P78352): below the threshold
- pKd (MPP6, Q9NZW5): below the threshold
- pKd (PDZD7_3, Q9H5P4): 4.03
- pKd (DLG5_1, Q8TDM6): below the threshold
- pKd (GRID2IP_2, A4D2P6): below the threshold
- pKd (SYNJ2BP, P57105): below the threshold
- pKd (AHNAK1, Q09666): below the threshold
- pKd (PTPN13_1, Q12923): below the threshold
- pKd (MPDZ_12, O75970): below the threshold
- pKd (GRIP1_7, Q9Y3R0): below the threshold
- pKd (FRMPD2_3, Q68DX3): below the threshold
- pKd (PDZRN4_1, Q6ZMN7): below the threshold
- pKd (APBA1_2, Q02410): 3.5
- pKd (GRID2IP_1, A4D2P6): below the threshold
- pKd (MAGI1_1, Q96QZ7): 3.49
- pKd (DLG1_1, Q12959): below the threshold
- pKd (NHERF2_2, Q15599): below the threshold
- pKd (DLG4_2, P78352): 3.47
- pKd (TJP1_3, Q07157): below the threshold

Source: PMC9482650, “Quantitative fragmentomics allow affinity mapping of interactomes” (Nature Communications, 2022)
